These results are taken from publication PMC7960543 (The Journal of Biological Chemistry, 2021).

First the molecules themselves.
B6: recombinant soluble CD40L (residues 118–261) with no N-terminal KGD motif, wild type (ligand)
chain: QNPQIAAHVISEASSKTTSVLQWAEKGYYTMSNNLVTLENGKQLTVKRQGLYYIYAQVTFCSNREASSQAPFIASLCLKSPGRFERILLRAANTHSSAKPCGQQSIHLGGVFELQPGASVFVNVTDPSQVSHGTGFTSFGLLKL
notes: CD40L (CD40 ligand), residues 118–261, without the KGD motif (residues 115–117); the His tag is known from detection with anti-His antibody; also called sCD40L; WT sCD40L; source: recombinant, synthesized as described (13)
B7: CD40 fragment (residues 21–144) fused to GST (domain or fragment, UniProt P25942 21-144, looked up)
chain: EPPTACREKQYLINSQCCSLCQPGQKLVSDCTEFTETECLPCGESEFLDTWNRETHCHQHKYCDPNLGLRVQQKGTSETDTICTCEEGWHCTSEACESCVLHRSCSPGFGVKQIATGVSDTICE
notes: also called CD40 fused to GST

Assay [1] addresses B6. The assay can be described thus: ELISA; CD40L immobilized; cyclic site 2 peptides of β1 or β3 fused to GST in solution; bound GST measured with HRP-conjugated anti-GST. To be noted: both partners purified. In general terms: ELISA stands for enzyme-linked immunosorbent assay.
Assay [2] concerns the target T1, recombinant soluble integrin αvβ3, P06756;P05106.
T1 chain 1: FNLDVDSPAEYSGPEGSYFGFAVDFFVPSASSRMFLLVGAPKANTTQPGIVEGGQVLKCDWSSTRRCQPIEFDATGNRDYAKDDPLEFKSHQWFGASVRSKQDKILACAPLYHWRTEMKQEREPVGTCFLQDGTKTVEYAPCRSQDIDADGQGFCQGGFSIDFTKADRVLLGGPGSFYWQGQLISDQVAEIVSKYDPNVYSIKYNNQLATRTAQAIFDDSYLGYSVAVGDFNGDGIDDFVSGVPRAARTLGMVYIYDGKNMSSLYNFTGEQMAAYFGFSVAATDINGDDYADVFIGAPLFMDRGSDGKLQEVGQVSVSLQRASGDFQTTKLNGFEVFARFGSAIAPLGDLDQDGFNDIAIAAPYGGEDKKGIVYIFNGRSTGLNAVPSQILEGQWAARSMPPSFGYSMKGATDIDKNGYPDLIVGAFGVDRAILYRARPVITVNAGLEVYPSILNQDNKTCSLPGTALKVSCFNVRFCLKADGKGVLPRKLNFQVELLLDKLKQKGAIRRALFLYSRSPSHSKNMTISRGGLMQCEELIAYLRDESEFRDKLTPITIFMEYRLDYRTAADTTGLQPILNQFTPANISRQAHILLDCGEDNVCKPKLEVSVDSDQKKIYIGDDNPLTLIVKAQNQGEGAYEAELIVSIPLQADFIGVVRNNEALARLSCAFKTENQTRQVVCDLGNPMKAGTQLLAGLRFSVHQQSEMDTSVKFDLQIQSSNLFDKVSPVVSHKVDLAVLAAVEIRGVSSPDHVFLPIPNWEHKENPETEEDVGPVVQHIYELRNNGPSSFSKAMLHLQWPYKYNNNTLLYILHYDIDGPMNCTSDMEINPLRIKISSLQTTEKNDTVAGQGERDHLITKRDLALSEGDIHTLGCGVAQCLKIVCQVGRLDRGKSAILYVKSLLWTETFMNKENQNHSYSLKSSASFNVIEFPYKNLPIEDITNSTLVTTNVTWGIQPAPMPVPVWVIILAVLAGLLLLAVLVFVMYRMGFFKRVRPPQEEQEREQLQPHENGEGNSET
T1 chain 2: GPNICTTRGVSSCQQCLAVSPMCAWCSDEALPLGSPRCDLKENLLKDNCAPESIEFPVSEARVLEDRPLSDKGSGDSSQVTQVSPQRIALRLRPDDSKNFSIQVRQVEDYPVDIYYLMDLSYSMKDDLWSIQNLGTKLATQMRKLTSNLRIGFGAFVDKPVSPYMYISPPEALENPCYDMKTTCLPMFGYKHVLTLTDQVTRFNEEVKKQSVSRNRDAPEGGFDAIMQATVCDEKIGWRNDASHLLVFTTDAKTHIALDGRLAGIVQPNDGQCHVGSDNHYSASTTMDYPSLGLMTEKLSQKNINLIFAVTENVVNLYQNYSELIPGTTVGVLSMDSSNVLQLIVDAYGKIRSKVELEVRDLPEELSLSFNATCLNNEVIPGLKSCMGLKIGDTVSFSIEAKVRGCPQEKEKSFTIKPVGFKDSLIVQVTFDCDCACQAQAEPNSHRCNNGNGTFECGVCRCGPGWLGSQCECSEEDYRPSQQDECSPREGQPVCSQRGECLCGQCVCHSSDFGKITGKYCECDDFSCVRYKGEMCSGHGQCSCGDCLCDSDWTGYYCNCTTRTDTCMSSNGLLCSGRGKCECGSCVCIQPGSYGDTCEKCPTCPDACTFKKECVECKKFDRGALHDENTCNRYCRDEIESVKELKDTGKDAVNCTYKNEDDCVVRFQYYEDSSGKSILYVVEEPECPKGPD
Briefly: ELISA. Conditions: chain shown with the change; immobilized CD40L mutants 10 μg/ml; soluble αvβ3 5 μg/ml in HEPES-Tyrodes buffer, 1 mM Mn2+; detection with anti-β3 (AV10); parent: est. 0.48; read off a plot.

In assay [3] the target is B7. The assay can be described thus: ELISA; CD40 fragment (21–144) fused to GST coated on wells (100 μg/ml in PBS); sCD40L (WT or mutant) incubated 1 h; bound sCD40L measured with HRP-conjugated anti-His. Conditions: both partners purified.
For assay [4], the target named is T2, sCD40L (residues 118–261) S128R/E129G HIGM1 mutant (UniProt P29965 118-261, S128R | E129G).
T2 construct: CD40L residues 118–261; HIGM1 (hyper-IgM syndrome type 1) mutation; source: recombinant, site-directed mutagenesis of WT sCD40L, synthesized as for WT
T2 sequence (looked up): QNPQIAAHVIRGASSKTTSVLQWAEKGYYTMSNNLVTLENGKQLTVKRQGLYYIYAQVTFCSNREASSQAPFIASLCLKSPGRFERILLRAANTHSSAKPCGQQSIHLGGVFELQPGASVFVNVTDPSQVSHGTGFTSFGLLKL
The assay is described as above. To be noted: both partners purified.

Assay [5] deals with T3, sCD40L (residues 118–261) K143T HIGM1 mutant (UniProt P29965 118-261, K143T).
T3 construct: CD40L residues 118–261; HIGM1 mutation; source: recombinant, site-directed mutagenesis of WT sCD40L, synthesized as for WT
T3 sequence (looked up): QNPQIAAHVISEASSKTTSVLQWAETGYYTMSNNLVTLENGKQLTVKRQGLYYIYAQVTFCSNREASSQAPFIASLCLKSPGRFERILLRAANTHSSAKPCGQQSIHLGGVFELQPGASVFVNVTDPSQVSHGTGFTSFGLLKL
Described as above. Conditions: both partners purified.

Assay [6] deals with T4, sCD40L (residues 118–261) G144E HIGM1 mutant (UniProt P29965 118-261, G144E).
T4 construct: CD40L residues 118–261; HIGM1 mutation; source: recombinant, site-directed mutagenesis of WT sCD40L, synthesized as for WT
T4 sequence (looked up): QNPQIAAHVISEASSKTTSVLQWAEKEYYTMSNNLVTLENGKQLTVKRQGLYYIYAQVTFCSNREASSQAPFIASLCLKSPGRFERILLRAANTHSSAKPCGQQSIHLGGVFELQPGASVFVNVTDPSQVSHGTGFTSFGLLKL
The assay is described as above. To be noted: both partners purified.

The target in assay [7] is T5, sCD40L (residues 118–261) L155P HIGM1 mutant (UniProt P29965 118-261, L155P).
T5 construct: CD40L residues 118–261; HIGM1 mutation; source: recombinant, site-directed mutagenesis of WT sCD40L, synthesized as for WT
T5 sequence (looked up): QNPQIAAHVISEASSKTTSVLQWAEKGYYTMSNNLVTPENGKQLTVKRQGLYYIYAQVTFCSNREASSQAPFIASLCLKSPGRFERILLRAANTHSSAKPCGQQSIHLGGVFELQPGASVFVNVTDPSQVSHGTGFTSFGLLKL
Described as above. Conditions: both partners purified.

Bridge positions count the residues as written; N and C are the ends. Ends that are not written are not given here.

B1: disulfide-linked cyclic site 2 peptide of integrin β1 (C268–C295) fused to GST (peptide)
peptide: CKLGGIVLPNDGQSHLENNMYTMSHYYC
modifications: disulfide 1-28; also: fused to GST
notes: integrin β1 residues 268–295 (site 2); Cloned in pGEX-2T6His; also called the corresponding β1 peptide; 28-mer cyclic β1 peptide
B1: in assay [1], the binding result is “binds”.

B2: recombinant soluble CD40L (residues 118–261) with no N-terminal KGD motif, wild type S128R; E129G (protein)
chain: QNPQIAAHVIRGASSKTTSVLQWAEKGYYTMSNNLVTLENGKQLTVKRQGLYYIYAQVTFCSNREASSQAPFIASLCLKSPGRFERILLRAANTHSSAKPCGQQSIHLGGVFELQPGASVFVNVTDPSQVSHGTGFTSFGLLKL
Consider B2, for which, in assay [2], the response stood at 0.046 OD450.

B3: recombinant soluble CD40L (residues 118–261) with no N-terminal KGD motif, wild type L155P (protein)
chain: QNPQIAAHVISEASSKTTSVLQWAEKGYYTMSNNLVTPENGKQLTVKRQGLYYIYAQVTFCSNREASSQAPFIASLCLKSPGRFERILLRAANTHSSAKPCGQQSIHLGGVFELQPGASVFVNVTDPSQVSHGTGFTSFGLLKL
For B3, the response in assay [2] stood at 0.042 OD450.

B4: recombinant soluble CD40L (residues 118–261) with no N-terminal KGD motif, wild type K143T (protein)
chain: QNPQIAAHVISEASSKTTSVLQWAETGYYTMSNNLVTLENGKQLTVKRQGLYYIYAQVTFCSNREASSQAPFIASLCLKSPGRFERILLRAANTHSSAKPCGQQSIHLGGVFELQPGASVFVNVTDPSQVSHGTGFTSFGLLKL
Regarding B4, the response in assay [2] is 0.33 OD450.

B5: recombinant soluble CD40L (residues 118–261) with no N-terminal KGD motif, wild type G144E (protein)
chain: QNPQIAAHVISEASSKTTSVLQWAEKEYYTMSNNLVTLENGKQLTVKRQGLYYIYAQVTFCSNREASSQAPFIASLCLKSPGRFERILLRAANTHSSAKPCGQQSIHLGGVFELQPGASVFVNVTDPSQVSHGTGFTSFGLLKL
In the case of B5, the response in assay [2] was determined as 0.4 OD450. Regarding B6, the binding result in assay [3] was “binds”. In the case of B7, the binding result in assay [4], in assay [5], in assay [6] and in assay [7] was “binds” each time.

B8: disulfide-linked cyclic site 2 peptide of integrin β3 (C260–C288) fused to GST (peptide)
peptide: CRLAGIVQPNDGQSHVGSDNHYSASTTMC
modifications: disulfide 1-29; also: fused to GST
notes: also called cyclic site 2 peptide from β3; 29-mer cyclic β3 peptide
As for B8, the binding result in assay [1] is “binds”.
